# Measured values: US20190248904A1 (Astellas, published 2019)
# Changes are numbered by the printed parent chain. Read-outs that look alike come from different tables or passages of the source.
# T1: human BDCA-2 variant (human, UniProt Q8WTT0 1-213)
# T1 construct: It was expressed on CHO-K1 cells together with full-length human FcεRIγ; also called human BDCA-2 variant/CHO cells; extracellular region of human BDCA-2
# T1 chain: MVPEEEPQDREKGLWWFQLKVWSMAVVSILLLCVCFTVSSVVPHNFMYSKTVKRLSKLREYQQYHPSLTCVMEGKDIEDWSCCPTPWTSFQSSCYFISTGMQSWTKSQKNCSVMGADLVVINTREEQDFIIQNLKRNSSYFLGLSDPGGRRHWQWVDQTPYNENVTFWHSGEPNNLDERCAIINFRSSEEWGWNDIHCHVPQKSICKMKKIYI
# T2: human BDCA-2 (human, UniProt Q8WTT0 1-213)
# T2 sequence: T1 chain with C33S
# B1: Fully human BDC13-32E3 (antibody, human IgG1, kappa, V domains shown)
# VH: QVQLQESGPGLVKPSQTLSLTCTVSGGSISSGGYYWNWIRQHPGKGLEWIGYIYYSGNTYYNPSLKSRVTISVDTSKNQFSLKLSSVTAADAAVYHCARGYGDYGGGYFDYWGQGTLVTVSS
# VL: DIQMTQSPSSLSASVGDRVTITCQASQDISNYLNWYQQKPGKAPKFLIYDVSNLETGVPSRFSGSGSGTDFTFTISSLQPEDIATYYCQQYDNLPYTFGQGTKLEIKR
# modifications: pyroglutamylation at the N terminal of the heavy chain and deletion of lysine at the C terminal of the heavy chain in most of the purified antibody (Example 6)
# notes: Human Igγ1 / human Igκ constant regions, expressed in CHOK1SV cells; also called fully human antibody of BDC13-32E3
# B2: BDC13-32E3 (chimeric) (antibody, V domains shown)
# VH: B1 VH
# VL: B1 VL
# notes: Hybridoma-derived VelocImmune antibody: human variable regions with mouse constant regions
# B3: BDC3-12A2 (chimeric) (antibody, V domains shown)
# VH: QVQLVESGGGVVQPGRSLRLSCAASGFTLSSYGMHWVRQAPGKGLEWVAVIWYDGNDKYYADSVKGRFTISRDNSKNTLYLQVNSLRAEDTAVYYCARGTGTPYWYFDLWGRGTLVTVSS
# VL: EIVLTQSPATLSLSPGERATLSCRASQSVNNYLAWYQQKPGQAPRLLIYDASNRATGIPARFSGSGSGTDFTLTISSLEPEDFAVYYCQQRSTWPPYTFGQGTKLEIKR
# notes: as for B2
# B4: Fully human BDC3-12A2 (antibody, human IgG1, kappa, V domains shown)
# VH: B3 VH
# VL: B3 VL
# modifications: pyroglutamylation at the N terminal of the heavy chain and deletion of lysine at the C terminal of the heavy chain in most of the purified antibody (Example 6)
# notes: Human Igγ1 / human Igκ constant regions, expressed in CHOK1SV cells; also called fully human antibody of BDC3-12A2
# B5: Fully human BDC3-12F5 (antibody, human IgG1, kappa, V domains shown)
# VH: EVQLVESGGGLVQPGGSLRLSCAASGFTFSNYLMNWVRQAPGKGLEWVANIEQDGSEKYYVDSVKGRFTISRDNAKNSLYLQMNSLRAEDTAVYFCARDGDTAMITFDFWGQGTLVTVSS
# VL: DIQMTQSPSSVSASVGDRVTITCRASQGIRRWLAWYQQKPGKAPKLLIYAASSLQRGVPSRFSGSGSGTDFTLTISSLQPEDFATYYCQQANSFPWTFGQGTKVEIKR
# modifications: deletion of lysine at the C terminal of the heavy chain in most of the purified antibody (Example 6)
# notes: Human Igγ1 / human Igκ constant regions, expressed in CHOK1SV cells; also called fully human antibody of BDC3-12F5
# B6: BDC3-12F5 (chimeric) (antibody, V domains shown)
# VH: B5 VH
# VL: B5 VL
# notes: as for B2
# What was measured:
# human BDCA-2 variant [1] = target: T1, human BDCA-2 variant; test: cell ELISA on human BDCA-2 variant/CHO cells, chemiluminescence
# Procedure: (§1) In order to measure the antigen-specific binding activity of the antibody, the binding of the antibody to the human BDCA-2 variant/CHO cells prepared in Example 1 was evaluated. Specifically, the human BDCA-2 variant/CHO cells were first suspended in an RPMI1640 culture medium (Life Technologies, Inc.) at 2×10⁵ cells/mL, seeded at 50 μL per well in a poly-D-lysine-coated 384-well plate (Greiner Bio-One), and cultured overnight in a CO₂ incubator set at 37° C. Then, the culture medium was removed, and 20 μL of each of a hybridoma-derived antibody (the antibody purified in Example 2) and a comparative antibody which had been diluted stepwise from a concentration of 10000 ng/mL to 4.6 ng/mL (8 steps in a 3-fold dilution series) with a diluent solution (a Hank's Balanced Salt solution supplemented with 1% bovine serum albumin) was added thereto and reacted at room temperature for 1 hour. Next, the assay plate was washed with a washing solution (a Hank's Balanced Salt solution supplemented with 0.1% bovine serum albumin) and 20 μL of an HRP-labeled rabbit anti-mouse IgG antibody ([…]: Dako Ltd.) which had been diluted 5000-fold with a diluent solution was added thereto, and reacted at room temperature for 30 minutes. Thereafter, the assay plate was washed with a washing solution, 30 μL of BM-Chemiluminescence ELISA Substrate (POD) (Roche Diagnostics. Inc.) which is a chemiluminescence detection reagent was added thereto, and the amount of chemiluminescence thereof was measured by an EnVision counter (PerkinElmer, Inc.). For the measurement results, the EC50 values were determined by fitting a four-parameter logistic curve. In this test, as a comparative antibody, AC144 (Non-Patent Documents 1 to 4, Miltenyi Biotec) which is a mouse antibody against human BDCA-2 was used.
# human BDCA-2 [2] = target: T2, human BDCA-2; test: cell-based or functional assay
# human BDCA-2 variant [3] = target: T1, human BDCA-2 variant; test: cell ELISA on human BDCA-2 variant/CHO cells, average of three independent tests
# Procedure: as §1
# According to the method of Example 3, for a fully human antibody, the binding activity of the antibody against an extracellular region of human BDCA-2 was evaluated. […]
# human BDCA-2 [4] = target: T2, human BDCA-2; test: cell-based or functional assay; remark: listed apart in the source
# human BDCA-2 [5] = target: T2, human BDCA-2; test: cell-based or functional assay; remark: listed apart in the source
molecule,measurement,setting,value
AC144 (antibody),EC50,human BDCA-2 variant [1],0.133 µg/mL
same,IC50 of inhibition of IFNα production from ODN2216-stimulated human PBMC (pDCs),human BDCA-2 [2],2.57 ng/mL
same,"IC50 of inhibition of IFNα production from human PBMC (pDCs), first time",human BDCA-2 [2],2.12 ng/mL
same,"IC50 of inhibition of IFNα production from human PBMC (pDCs), second time",human BDCA-2 [2],3.83 ng/mL
same,IC90 of inhibition of IFNα production from ODN2216-stimulated human PBMC (pDCs),human BDCA-2 [2],56.5 ng/mL
same,"IC90 of inhibition of IFNα production from human PBMC (pDCs), first time",human BDCA-2 [2],20.6 ng/mL
same,"IC90 of inhibition of IFNα production from human PBMC (pDCs), second time",human BDCA-2 [2],26.8 ng/mL
B1,EC50,human BDCA-2 variant [3],0.203 µg/mL
same,"IC50 of inhibition of IFNα production from human PBMC (pDCs), first time",human BDCA-2 [4],0.32 ng/mL
same,"IC50 of inhibition of IFNα production from human PBMC (pDCs), second time",human BDCA-2 [4],0.59 ng/mL
same,"IC90 of inhibition of IFNα production from human PBMC (pDCs), first time",human BDCA-2 [4],2.03 ng/mL
same,"IC90 of inhibition of IFNα production from human PBMC (pDCs), second time",human BDCA-2 [4],1.25 ng/mL
B2,EC50,human BDCA-2 variant [1],0.096 µg/mL
same,IC50 of inhibition of IFNα production from ODN2216-stimulated human PBMC (pDCs),human BDCA-2 [5],0.43 ng/mL
same,IC90 of inhibition of IFNα production from ODN2216-stimulated human PBMC (pDCs),human BDCA-2 [5],1.03 ng/mL
B3,EC50,human BDCA-2 variant [1],0.059 µg/mL
same,IC50 of inhibition of IFNα production from ODN2216-stimulated human PBMC (pDCs),human BDCA-2 [5],0.27 ng/mL
same,IC90 of inhibition of IFNα production from ODN2216-stimulated human PBMC (pDCs),human BDCA-2 [5],1.03 ng/mL
B4,EC50,human BDCA-2 variant [3],0.08 µg/mL
same,"IC50 of inhibition of IFNα production from human PBMC (pDCs), first time",human BDCA-2 [4],0.35 ng/mL
same,"IC50 of inhibition of IFNα production from human PBMC (pDCs), second time",human BDCA-2 [4],0.68 ng/mL
same,"IC90 of inhibition of IFNα production from human PBMC (pDCs), first time",human BDCA-2 [4],1.94 ng/mL
same,"IC90 of inhibition of IFNα production from human PBMC (pDCs), second time",human BDCA-2 [4],1.76 ng/mL
B5,EC50,human BDCA-2 variant [3],0.088 µg/mL
same,"IC50 of inhibition of IFNα production from human PBMC (pDCs), first time",human BDCA-2 [4],0.54 ng/mL
same,"IC50 of inhibition of IFNα production from human PBMC (pDCs), second time",human BDCA-2 [4],0.24 ng/mL
same,"IC90 of inhibition of IFNα production from human PBMC (pDCs), first time",human BDCA-2 [4],1.19 ng/mL
same,"IC90 of inhibition of IFNα production from human PBMC (pDCs), second time",human BDCA-2 [4],1.98 ng/mL
B6,EC50,human BDCA-2 variant [1],0.057 µg/mL
same,IC50 of inhibition of IFNα production from ODN2216-stimulated human PBMC (pDCs),human BDCA-2 [5],0.23 ng/mL
same,IC90 of inhibition of IFNα production from ODN2216-stimulated human PBMC (pDCs),human BDCA-2 [5],0.93 ng/mL
